Biological target: Orai1β-eGFP (UniProt Q96D31)
Assay: co-IP; Orai1-KO MCF7 cells co-transfected with an Orai1 variant and mCherry-SPCA2; lysis in 1% IGEPAL CA-630 buffer pH 8; immunoprecipitation with anti-Orai1 antibody and protein A-agarose at 4 °C overnight; Western blot with anti-mCherry; signal normalised to input and to immunoprecipitated Orai1

UniProt Q96D31, sequence (Q96D31 64-301): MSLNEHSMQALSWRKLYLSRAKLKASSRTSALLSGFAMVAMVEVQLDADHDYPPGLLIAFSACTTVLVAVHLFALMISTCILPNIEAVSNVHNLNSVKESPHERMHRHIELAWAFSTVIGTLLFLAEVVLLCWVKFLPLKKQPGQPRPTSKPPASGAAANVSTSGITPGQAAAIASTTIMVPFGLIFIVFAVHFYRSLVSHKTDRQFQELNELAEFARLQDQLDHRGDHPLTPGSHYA

percent decrease of co-precipitated SPCA2 against Orai1α: 63%
B1: mCherry-SPCA2 (natural protein)
chain: MVEGRVSEFLKKLGFSGGGRQYQALEKDEEEALIDEQSELKAIEKEKKVTALPPKEACKCQKEDLARAFCVDLHTGLSEFSVTQRRLAHGWNEFVADNSEPVWKKYLDQFKNPLILLLLGSALVSVLTKEYEDAVSIATAVLVVVTVAFIQEYRSEKSLEELTKLVPPECNCLREGKLQHLLARELVPGDVVSLSIGDRIPADIRLTEVTDLLVDESSFTGEAEPCSKTDSPLTGGGDLTTLSNIVFMGTLVQYGRGQGVVIGTGESSQFGEVFKMMQAEETPKTPLQKSMDRLGKQLTLFSFGIIGLIMLIGWSQGKQLLSMFTIGVSLAVAAIPEGLPIVVMVTLVLGVLRMAKKRVIVKKLPIVETLGCCSVLCSDKTGTLTANEMTVTQLVTSDGLRAEVSGVGYDGQGTVCLLPSKEVIKEFSNVSVGKLVEAGCVANNAVIRKNAVMGQPTEGALMALAMKMDLSDIKNSYIRKKEIPFSSEQKWMAVKCSLKTEDQEDIYFMKGALEEVIRYCTMYNNGGIPLPLTPQQRSFCLQEEKRMGSLGLRVLALASGPELGRLTFLGLVGIIDPPRVGVKEAVQVLSESGVSVKMITGDALETALAIGRNIGLCNGKLQAMSGEEVDSVEKGELADRVGKVSVFFRTSPKHKLKIIKALQESGAIVAMTGDGVNDAVALKSADIGIAMGQTGTDVSKEAANMILVDDDFSAIMNAVEEGKGIFYNIKNFVRFQLSTSISALSLITLSTVFNLPSPLNAMQILWINIIMDGPPAQSLGVEPVDKDAFRQPPRSVRDTILSRALILKILMSAAIIISGTLFIFWKEMPEDRASTPRTTTMTFTCFVFFDLFNALTCRSQTKLIFEIGFLRNHMFLYSVLGSILGQLAVIYIPPLQRVFQTENLGALDLLFLTGLASSVFILSELLKLCEKYCCSPKRVQMHPEDV
